# Article PMC9482650, “Quantitative fragmentomics allow affinity mapping of interactomes” (Nature Communications, 2022)
# Residue numbers refer to the chain shown, from its start.
# T1: ARHGAP21, Q5T5U3
# T1 sequence (Q5T5U3 45-169, limits assumed, looked up): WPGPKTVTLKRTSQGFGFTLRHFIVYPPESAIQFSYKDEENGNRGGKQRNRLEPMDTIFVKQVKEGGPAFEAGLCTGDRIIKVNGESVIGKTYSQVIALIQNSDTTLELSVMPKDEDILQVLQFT
# T2: HTRA3, P83110
# T2 sequence (P83110 354-453, limits assumed, looked up): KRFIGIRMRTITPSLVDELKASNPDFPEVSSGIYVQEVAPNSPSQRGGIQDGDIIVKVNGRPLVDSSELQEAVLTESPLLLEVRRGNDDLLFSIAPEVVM
# T3: PDZRN3_1, Q9UPQ7
# T3 sequence (Q9UPQ7 244-349, limits assumed, looked up): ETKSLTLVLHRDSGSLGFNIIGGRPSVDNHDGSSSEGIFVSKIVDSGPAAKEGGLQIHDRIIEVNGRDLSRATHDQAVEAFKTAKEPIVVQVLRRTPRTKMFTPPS
# T4: MPP7, Q5T2T1
# T4 sequence (Q5T2T1 134-230, limits assumed, looked up): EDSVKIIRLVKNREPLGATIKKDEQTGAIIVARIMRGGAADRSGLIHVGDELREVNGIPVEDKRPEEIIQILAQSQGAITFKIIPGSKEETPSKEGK
# T5: LIN7B, Q9HAP6
# T5 sequence (Q9HAP6 88-185, limits assumed, looked up): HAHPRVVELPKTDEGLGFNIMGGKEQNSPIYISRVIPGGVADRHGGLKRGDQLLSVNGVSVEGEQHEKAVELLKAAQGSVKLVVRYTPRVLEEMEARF
# T6: LIN7C, Q9NUP9
# T6 sequence (Q9NUP9 88-185, limits assumed, looked up): T5 sequence (Q9HAP6 88-185, limits assumed, looked up) with A2S, D13E, V35I, V40I, Q65H, S79K, R89K, A96S
# T7: DLG3_2, Q92796
# T7 sequence (Q92796 221-321, limits assumed, looked up): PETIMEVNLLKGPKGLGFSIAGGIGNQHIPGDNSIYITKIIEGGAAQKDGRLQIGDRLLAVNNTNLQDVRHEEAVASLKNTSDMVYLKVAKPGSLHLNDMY
# T8: GRIP1_3, Q9Y3R0
# T8 sequence (Q9Y3R0 247-346, limits assumed, looked up): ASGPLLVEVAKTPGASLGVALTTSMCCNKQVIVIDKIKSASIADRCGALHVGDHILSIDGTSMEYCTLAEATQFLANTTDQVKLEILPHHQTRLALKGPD
# T9: DFNB31_2, Q9P202
# T9 sequence (Q9P202 274-371, limits assumed, looked up): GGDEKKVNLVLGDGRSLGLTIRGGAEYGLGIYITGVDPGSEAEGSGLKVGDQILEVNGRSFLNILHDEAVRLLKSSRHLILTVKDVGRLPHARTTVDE
# T10: GRIP1_4, Q9Y3R0
# T10 sequence (Q9Y3R0 467-571, limits assumed, looked up): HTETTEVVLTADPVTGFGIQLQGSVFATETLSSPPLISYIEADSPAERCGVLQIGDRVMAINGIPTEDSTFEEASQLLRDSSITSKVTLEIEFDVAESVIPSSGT
# T11: APBA1_1, Q02410
# T11 sequence (Q02410 651-752, limits assumed, looked up): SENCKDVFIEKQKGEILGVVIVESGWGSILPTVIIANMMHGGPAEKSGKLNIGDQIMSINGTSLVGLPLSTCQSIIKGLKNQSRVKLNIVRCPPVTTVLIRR
# Biological target: FRMPD4, Q14CM0
# Test: holdup assay
# Design: key: below the threshold = too weak to quantify, mostly under pKd 3.1 to 4
# Settings: plain residues with an end cap or a label only (N-terminal biotin on a linker: ado-ado)
# FRMPD4, Q14CM0, sequence (Q14CM0 67-160): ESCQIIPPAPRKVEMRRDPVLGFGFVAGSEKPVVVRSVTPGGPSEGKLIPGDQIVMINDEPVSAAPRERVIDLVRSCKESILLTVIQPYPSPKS
row,pKd,Binder
1,below the threshold,"SNAGNTATKA [NOSTRIN, Q8IVI9]"
2,below the threshold,"ETQVTAETVI [TMEM225B, P0DP42]"

# Biological target: NHERF4_2, Q86UT5
# Test: holdup assay
# Design: key: below the threshold = too weak to quantify, mostly under pKd 3.1 to 4
# Settings: plain residues with an end cap or a label only (N-terminal biotin on a linker: ado-ado)
# NHERF4_2, Q86UT5, sequence (Q86UT5 220-308): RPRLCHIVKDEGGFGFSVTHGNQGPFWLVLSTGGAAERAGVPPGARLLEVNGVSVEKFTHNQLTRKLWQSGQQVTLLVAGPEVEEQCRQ
row,pKd,Binder
1,below the threshold,"SNAGNTATKA [NOSTRIN, Q8IVI9]"
2,below the threshold,"ETQVTAETVI [TMEM225B, P0DP42]"

# Biological target: T1, ARHGAP21, Q5T5U3
# Test: holdup assay
# Design: key: below the threshold = too weak to quantify, mostly under pKd 3.1 to 4
# Settings: plain residues with an end cap or a label only (N-terminal biotin on a linker: ado-ado)
row,pKd,Binder
1,below the threshold,"SNAGNTATKA [NOSTRIN, Q8IVI9]"
2,below the threshold,"ETQVTAETVI [TMEM225B, P0DP42]"

# Biological target: T2, HTRA3, P83110
# Test: holdup assay
# Design: key: below the threshold = too weak to quantify, mostly under pKd 3.1 to 4
# Settings: plain residues with an end cap or a label only (N-terminal biotin on a linker: ado-ado)
row,pKd,Binder
1,below the threshold,"SNAGNTATKA [NOSTRIN, Q8IVI9]"
2,below the threshold,"ETQVTAETVI [TMEM225B, P0DP42]"

# Biological target: T3, PDZRN3_1, Q9UPQ7
# Test: holdup assay
# Design: key: below the threshold = too weak to quantify, mostly under pKd 3.1 to 4
# Settings: plain residues with an end cap or a label only (N-terminal biotin on a linker: ado-ado)
row,pKd,Binder
1,below the threshold,"SNAGNTATKA [NOSTRIN, Q8IVI9]"
2,below the threshold,"ETQVTAETVI [TMEM225B, P0DP42]"

# Biological target: MAGI2_4, Q86UL8
# Test: holdup assay
# Design: key: below the threshold = too weak to quantify, mostly under pKd 3.1 to 4
# Settings: plain residues with an end cap or a label only (N-terminal biotin on a linker: ado-ado)
# MAGI2_4, Q86UL8, sequence (Q86UL8 772-865): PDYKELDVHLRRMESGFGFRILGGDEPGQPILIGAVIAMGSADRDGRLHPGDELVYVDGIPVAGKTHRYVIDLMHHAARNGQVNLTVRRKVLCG
row,pKd,Binder
1,below the threshold,"SNAGNTATKA [NOSTRIN, Q8IVI9]"
2,below the threshold,"ETQVTAETVI [TMEM225B, P0DP42]"

# Biological target: GORASP2, Q9H8Y8
# Test: holdup assay
# Design: key: below the threshold = too weak to quantify, mostly under pKd 3.1 to 4
# Settings: plain residues with an end cap or a label only (N-terminal biotin on a linker: ado-ado)
row,pKd,Binder
1,below the threshold,"SNAGNTATKA [NOSTRIN, Q8IVI9]"
2,3.57,"ETQVTAETVI [TMEM225B, P0DP42]"

# Biological target: T4, MPP7, Q5T2T1
# Test: holdup assay
# Design: key: below the threshold = too weak to quantify, mostly under pKd 3.1 to 4
# Settings: plain residues with an end cap or a label only (N-terminal biotin on a linker: ado-ado)
row,pKd,Binder
1,below the threshold,"SNAGNTATKA [NOSTRIN, Q8IVI9]"
2,below the threshold,"ETQVTAETVI [TMEM225B, P0DP42]"

# Biological target: T5, LIN7B, Q9HAP6
# Test: holdup assay
# Design: key: below the threshold = too weak to quantify, mostly under pKd 3.1 to 4
# Settings: plain residues with an end cap or a label only (N-terminal biotin on a linker: ado-ado)
row,pKd,Binder
1,3.74,"SNAGNTATKA [NOSTRIN, Q8IVI9]"
2,below the threshold,"ETQVTAETVI [TMEM225B, P0DP42]"

# Biological target: MAGI2_3, Q86UL8
# Test: holdup assay
# Design: key: below the threshold = too weak to quantify, mostly under pKd 3.1 to 4
# Settings: plain residues with an end cap or a label only (N-terminal biotin on a linker: ado-ado)
# MAGI2_3, Q86UL8, sequence (Q86UL8 600-682): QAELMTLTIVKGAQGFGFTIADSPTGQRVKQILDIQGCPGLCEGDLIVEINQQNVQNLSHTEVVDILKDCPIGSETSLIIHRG
row,pKd,Binder
1,below the threshold,"SNAGNTATKA [NOSTRIN, Q8IVI9]"
2,below the threshold,"ETQVTAETVI [TMEM225B, P0DP42]"

# Biological target: GIPC2, Q8TF65
# Test: holdup assay
# Design: key: below the threshold = too weak to quantify, mostly under pKd 3.1 to 4
# Settings: plain residues with an end cap or a label only (N-terminal biotin on a linker: ado-ado)
# GIPC2, Q8TF65, sequence (Q8TF65 112-203): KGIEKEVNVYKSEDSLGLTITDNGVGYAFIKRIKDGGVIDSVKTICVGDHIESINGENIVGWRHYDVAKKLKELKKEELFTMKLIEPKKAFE
row,pKd,Binder
1,below the threshold,"SNAGNTATKA [NOSTRIN, Q8IVI9]"
2,below the threshold,"ETQVTAETVI [TMEM225B, P0DP42]"

# Biological target: GRID2IP_1, A4D2P6
# Test: holdup assay
# Design: key: below the threshold = too weak to quantify, mostly under pKd 3.1 to 4
# Settings: plain residues with an end cap or a label only (N-terminal biotin on a linker: ado-ado)
# GRID2IP_1, A4D2P6, sequence (A4D2P6 1-87): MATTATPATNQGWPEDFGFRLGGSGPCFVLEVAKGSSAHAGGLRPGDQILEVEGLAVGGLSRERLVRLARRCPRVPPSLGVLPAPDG
row,pKd,Binder
1,below the threshold,"SNAGNTATKA [NOSTRIN, Q8IVI9]"
2,below the threshold,"ETQVTAETVI [TMEM225B, P0DP42]"

# Biological target: T6, LIN7C, Q9NUP9
# Test: holdup assay
# Design: key: below the threshold = too weak to quantify, mostly under pKd 3.1 to 4
# Settings: plain residues with an end cap or a label only (N-terminal biotin on a linker: ado-ado)
row,pKd,Binder
1,below the threshold,"SNAGNTATKA [NOSTRIN, Q8IVI9]"
2,4.07,"ETQVTAETVI [TMEM225B, P0DP42]"

# Biological target: GORASP1, Q9BQQ3
# Test: holdup assay
# Design: key: below the threshold = too weak to quantify, mostly under pKd 3.1 to 4
# Settings: plain residues with an end cap or a label only (N-terminal biotin on a linker: ado-ado)
# GORASP1, Q9BQQ3, sequence (Q9BQQ3 1-208): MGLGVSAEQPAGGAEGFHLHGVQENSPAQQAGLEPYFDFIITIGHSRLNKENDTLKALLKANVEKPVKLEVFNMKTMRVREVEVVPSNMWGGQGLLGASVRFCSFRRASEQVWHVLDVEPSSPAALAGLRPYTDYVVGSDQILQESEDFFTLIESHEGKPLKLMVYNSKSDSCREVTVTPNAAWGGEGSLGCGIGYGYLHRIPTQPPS
row,pKd,Binder
1,below the threshold,"SNAGNTATKA [NOSTRIN, Q8IVI9]"
2,3.67,"ETQVTAETVI [TMEM225B, P0DP42]"

# Biological target: LNX1_1, Q8TBB1
# Test: holdup assay
# Design: key: below the threshold = too weak to quantify, mostly under pKd 3.1 to 4
# Settings: plain residues with an end cap or a label only (N-terminal biotin on a linker: ado-ado)
# LNX1_1, Q8TBB1, sequence (Q8TBB1 261-371): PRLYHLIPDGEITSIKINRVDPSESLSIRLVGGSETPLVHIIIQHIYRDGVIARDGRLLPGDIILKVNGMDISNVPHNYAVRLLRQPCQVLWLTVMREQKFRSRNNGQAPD
row,pKd,Binder
1,below the threshold,"SNAGNTATKA [NOSTRIN, Q8IVI9]"
2,3.59,"ETQVTAETVI [TMEM225B, P0DP42]"

# Biological target: Inadl_2, Q8NI35
# Test: holdup assay
# Design: key: below the threshold = too weak to quantify, mostly under pKd 3.1 to 4
# Settings: plain residues with an end cap or a label only (N-terminal biotin on a linker: ado-ado)
# Inadl_2, Q8NI35, sequence (Q8NI35 238-335): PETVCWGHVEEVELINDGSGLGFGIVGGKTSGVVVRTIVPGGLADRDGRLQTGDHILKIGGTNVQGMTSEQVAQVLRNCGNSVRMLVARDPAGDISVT
row,pKd,Binder
1,below the threshold,"SNAGNTATKA [NOSTRIN, Q8IVI9]"
2,below the threshold,"ETQVTAETVI [TMEM225B, P0DP42]"

# Biological target: T7, DLG3_2, Q92796
# Test: holdup assay
# Design: key: below the threshold = too weak to quantify, mostly under pKd 3.1 to 4
# Settings: plain residues with an end cap or a label only (N-terminal biotin on a linker: ado-ado)
row,pKd,Binder
1,4.25,"SNAGNTATKA [NOSTRIN, Q8IVI9]"
2,4.43,"ETQVTAETVI [TMEM225B, P0DP42]"

# Biological target: CASK, O14936
# Test: holdup assay
# Design: key: below the threshold = too weak to quantify, mostly under pKd 3.1 to 4
# Settings: plain residues with an end cap or a label only (N-terminal biotin on a linker: ado-ado)
# CASK, O14936, sequence (O14936 487-570): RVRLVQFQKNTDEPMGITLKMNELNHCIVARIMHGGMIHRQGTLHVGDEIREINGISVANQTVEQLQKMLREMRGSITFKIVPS
row,pKd,Binder
1,below the threshold,"SNAGNTATKA [NOSTRIN, Q8IVI9]"
2,below the threshold,"ETQVTAETVI [TMEM225B, P0DP42]"

# Biological target: T8, GRIP1_3, Q9Y3R0
# Test: holdup assay
# Design: key: below the threshold = too weak to quantify, mostly under pKd 3.1 to 4
# Settings: plain residues with an end cap or a label only (N-terminal biotin on a linker: ado-ado)
row,pKd,Binder
1,below the threshold,"SNAGNTATKA [NOSTRIN, Q8IVI9]"
2,below the threshold,"ETQVTAETVI [TMEM225B, P0DP42]"

# Biological target: T9, DFNB31_2, Q9P202
# Test: holdup assay
# Design: key: below the threshold = too weak to quantify, mostly under pKd 3.1 to 4
# Settings: plain residues with an end cap or a label only (N-terminal biotin on a linker: ado-ado)
row,pKd,Binder
1,below the threshold,"SNAGNTATKA [NOSTRIN, Q8IVI9]"
2,below the threshold,"ETQVTAETVI [TMEM225B, P0DP42]"

# Biological target: T10, GRIP1_4, Q9Y3R0
# Test: holdup assay
# Design: key: below the threshold = too weak to quantify, mostly under pKd 3.1 to 4
# Settings: plain residues with an end cap or a label only (N-terminal biotin on a linker: ado-ado)
row,pKd,Binder
1,below the threshold,"SNAGNTATKA [NOSTRIN, Q8IVI9]"
2,below the threshold,"ETQVTAETVI [TMEM225B, P0DP42]"

# Biological target: DLG4_1, P78352
# Test: holdup assay
# Design: key: below the threshold = too weak to quantify, mostly under pKd 3.1 to 4
# Settings: plain residues with an end cap or a label only (N-terminal biotin on a linker: ado-ado)
# DLG4_1, P78352, sequence (P78352 62-152): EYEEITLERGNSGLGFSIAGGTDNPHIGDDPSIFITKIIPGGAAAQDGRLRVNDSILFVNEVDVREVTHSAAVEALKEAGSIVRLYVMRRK
row,pKd,Binder
1,below the threshold,"SNAGNTATKA [NOSTRIN, Q8IVI9]"
2,3.6,"ETQVTAETVI [TMEM225B, P0DP42]"

# Biological target: GRIP2_5, Q9C0E4
# Test: holdup assay
# Design: key: below the threshold = too weak to quantify, mostly under pKd 3.1 to 4
# Settings: plain residues with an end cap or a label only (N-terminal biotin on a linker: ado-ado)
# GRIP2_5, Q9C0E4, sequence (Q9C0E4 544-642): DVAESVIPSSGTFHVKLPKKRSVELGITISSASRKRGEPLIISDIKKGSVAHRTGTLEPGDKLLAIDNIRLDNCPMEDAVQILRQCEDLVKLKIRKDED
row,pKd,Binder
1,below the threshold,"SNAGNTATKA [NOSTRIN, Q8IVI9]"
2,below the threshold,"ETQVTAETVI [TMEM225B, P0DP42]"

# Biological target: FRMPD3, Q5JV73
# Test: holdup assay
# Design: key: below the threshold = too weak to quantify, mostly under pKd 3.1 to 4
# Settings: plain residues with an end cap or a label only (N-terminal biotin on a linker: ado-ado)
# FRMPD3, Q5JV73, sequence (Q5JV73 12-100): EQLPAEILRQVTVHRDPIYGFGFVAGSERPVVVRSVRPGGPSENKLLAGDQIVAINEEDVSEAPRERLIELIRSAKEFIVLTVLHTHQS
row,pKd,Binder
1,below the threshold,"SNAGNTATKA [NOSTRIN, Q8IVI9]"
2,below the threshold,"ETQVTAETVI [TMEM225B, P0DP42]"

# Biological target: T11, APBA1_1, Q02410
# Test: holdup assay
# Design: key: below the threshold = too weak to quantify, mostly under pKd 3.1 to 4
# Settings: plain residues with an end cap or a label only (N-terminal biotin on a linker: ado-ado)
row,pKd,Binder
1,below the threshold,"SNAGNTATKA [NOSTRIN, Q8IVI9]"
2,below the threshold,"ETQVTAETVI [TMEM225B, P0DP42]"
